Measurements taken from paper PMC10179609.
Like-named read-outs stand apart in the source and are kept apart here.

Experiments:
[1] = viscometry; falling ball micro viscometer, 20 °C, Tpm 1.0 mg/mL (15 µM), 30 mM HEPES-Na pH 7.3, 100 mM NaCl, 4 mM DTT; end-to-end (N- and C-ends) interaction of Tpm dimers; conditions: other: viscometry
[2] = biological target: F-actin (skeletal rabbit muscle actin) (rabbit) (UniProt P68135); test: light scattering on heating; 20 μM phalloidin-stabilized F-actin, 10.5 μM Tpm, 30 mM HEPES-Na pH 7.3, 100 mM NaCl; 350 nm, heating 1 °C/min; Tdiss is the temperature of a 50% decrease in light scattering
[3] = biological target: F-actin (skeletal rabbit muscle actin) (rabbit) (UniProt P68135); test: co-sedimentation; without TnT1; 10 μM F-actin, Tpm 0 to 7.5 μM, 20 °C, 30 mM HEPES-Na pH 7.3, 200 mM NaCl; 100,000 g 40 min, SDS-PAGE of pellet and supernatant
[4] = biological target: F-actin (skeletal rabbit muscle actin) (rabbit) (UniProt P68135)
[5] = biological target: F-actin (skeletal rabbit muscle actin) (rabbit) (UniProt P68135); test: co-sedimentation; with 1.5 μM TnT1 (fragment of human cardiac troponin T); 10 μM F-actin, Tpm 0 to 7.5 μM, 20 °C, 30 mM HEPES-Na pH 7.3, 255 mM NaCl; 100,000 g 40 min, SDS-PAGE of pellet and supernatant
[6] = biological target: α-chain of tropomyosin (αTpm, Tpm 1.1), single chain (human); test: cross-linking; ααTpm, κκTpm or their equimolar mixture heated to 70 °C, cooled, dimers cross-linked at SH groups with DTNB; SDS-PAGE without β-mercaptoethanol
[7] = biological target: F-actin (skeletal rabbit muscle actin) (rabbit) (UniProt P68135); test: co-sedimentation; without TnT1; 10 μM F-actin, Tpm 0 to 7.5 μM, 20 °C, 30 mM HEPES-Na pH 7.3, 200 mM NaCl; 100,000 g 40 min, SDS-PAGE of pellet and supernatant; remark: listed apart in the source

Substance | Tdiss (temperature of 50% dissociation of the complex with F-actin) [2] [°C] | K50% (Tpm concentration at half-saturation of F-actin) [3] [µM] | reduction of the sliding velocity of F-actin (2.2 µm/s) in the in vitro motility assay [4] [%] | K50% with TnT1 (Tpm concentration at half-saturation of F-actin) [5] [µM] | viscosity of the Tpm solution [1] [mPa·s] | also measured
ααTpm homodimer (alpha-tropomyosin, Tpm 1.1) |  |  |  |  | 0.41 ± 0.04 | 
ακTpm heterodimer (complex) |  |  |  | 0.71 |  | 
κ-chain of tropomyosin (κTpm, Tpm 1.2), single chain (natural protein) |  |  |  |  |  | share of heterodimers among the dimers formed from an equimolar mixture [6]: < 90%
κκTpm homodimer (kappa-tropomyosin, Tpm 1.2) |  |  |  |  | 0.09 ± 0.01 | 

Continued, in another order:

Tdiss (temperature of 50% dissociation of the complex with F-actin) [2] [°C] | K50% (Tpm concentration at half-saturation of F-actin) [3] [µM] | reduction of the sliding velocity of F-actin (2.2 µm/s) in the in vitro motility assay [4] [%] | K50% with TnT1 (Tpm concentration at half-saturation of F-actin) [5] [µM] | Substance | viscosity of the Tpm solution [1] [mPa·s] | also measured
45.9 | 1.23 | 50 |  | ααTpm homodimer (alpha-tropomyosin, Tpm 1.1) (natural protein) |  | 
42.1 | 1.29 | 30 | 0.88 | κκTpm homodimer (kappa-tropomyosin, Tpm 1.2) (natural protein) |  | K50% (Tpm concentration at half-saturation of F-actin) [7]: 2.37 µM
